In patent publication US20200079850A1 (SUTRO BIOPHARMA, published 2020):

T1: hLAG3 (Acro Biosystems), SPR analyte (human, UniProt P18627 23-450)
T1 construct: also called human LAG3 kinetics
T1 sequence: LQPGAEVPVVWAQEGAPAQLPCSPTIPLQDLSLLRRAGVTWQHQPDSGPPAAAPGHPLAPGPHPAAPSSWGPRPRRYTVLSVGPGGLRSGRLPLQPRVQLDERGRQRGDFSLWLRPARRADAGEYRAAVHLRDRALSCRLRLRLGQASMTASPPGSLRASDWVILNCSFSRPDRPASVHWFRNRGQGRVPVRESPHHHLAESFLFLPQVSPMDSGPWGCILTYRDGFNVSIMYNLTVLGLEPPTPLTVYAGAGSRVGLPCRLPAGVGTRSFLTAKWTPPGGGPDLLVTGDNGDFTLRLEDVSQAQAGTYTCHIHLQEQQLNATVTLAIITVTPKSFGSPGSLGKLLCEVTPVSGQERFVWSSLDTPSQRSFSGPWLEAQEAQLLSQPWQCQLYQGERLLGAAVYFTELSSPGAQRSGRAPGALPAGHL


Experiments:
[1] = molecular target: T2, human PD-1 expressed on the surface of CHO cells (human, UniProt Q15116 25-288); assay: flow cytometry cell binding on CHO cells expressing human PD-1; PE anti-human IgG detection; one site-specific binding with Hill slope fit
T2 construct: I took it as human PD-1; also called CHO-PD1
T2 sequence (Q15116 25-288 limits assumed): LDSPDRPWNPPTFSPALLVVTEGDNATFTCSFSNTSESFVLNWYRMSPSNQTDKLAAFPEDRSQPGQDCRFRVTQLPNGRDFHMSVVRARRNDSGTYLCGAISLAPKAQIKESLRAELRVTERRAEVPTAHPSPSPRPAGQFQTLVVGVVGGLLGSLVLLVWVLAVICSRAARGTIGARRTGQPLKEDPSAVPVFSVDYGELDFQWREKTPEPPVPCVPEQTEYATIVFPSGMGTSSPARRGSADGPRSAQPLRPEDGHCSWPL
Protocol: CHO-k cells stably expressing PD-1 or LAG3 (human or cynomolgus) on the cell surface were used to assess binding affinity of anti-PD-1/LAG3 bispecific antibody constructs. Cells were seeded at 100,000 cells/well in 100 μL of FACS buffer (1×PBS, 0.5% BSA, 0.1% sodium azide) in 96-well polypropylene plates. The cells were centrifuged at 1.5K rpm and resuspended with test antibodies diluted in FACS buffer and incubated on ice for 1 hour. The cells were washed twice with FACS buffer and incubated on ice for 30 mins with R-Phycoerythrin-AffiniPure F(ab′)2 Fragment Goat Anti-Human IgG (H+L) secondary detection antibody (1:200 dilution, Jackson ImmunoResearch Laboratories, West Grove, Pa.). The cells were washed twice with FACS buffer, fixed in 4% paraformaldehyde in PBS (Santa Cruz Biotechnology; Dallas, Tex.) for 20 mins on ice in the dark, washed twice with FACS buffer, and analyzed using the BD LSR II Flow Cytometer (BD Biosciences; San Jose, Calif.). Data were analyzed using FlowJo (FlowJo, LLC; Ashland, Oreg.) to determine mean fluorescence intensities. Binding constants were calculated using the statistical software, GraphPad Prism (GraphPad Software; La Jolla, Calif.) using the nonlinear regression equation, one site—specific binding with Hill slope. The secondary antibody by itself was used as a control.

[2] = molecular target: T3, rabbit Fc-tagged recombinant human PD1 (rhPD1-rabbit Fc) (human, UniProt Q15116 25-167, limits assumed); assay: flow cytometry competition: inhibition of rhPD1-rabbit Fc binding to human PD-L2 on CHO cells; PE anti-rabbit IgG detection
T3 construct: also called recombinant human PD-1 protein
T3 sequence (Q15116 25-167 limits assumed): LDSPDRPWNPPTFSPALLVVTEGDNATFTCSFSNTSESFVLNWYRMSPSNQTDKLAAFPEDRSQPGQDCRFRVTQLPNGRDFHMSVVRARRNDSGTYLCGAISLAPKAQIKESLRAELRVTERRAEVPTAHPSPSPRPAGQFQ
Protocol: (§1) CHO-k cells stably expressing human PD-L1 or PD-L2 were used to measure the ability of anti-PD1/LAG3 bi-specific antibody constructs to block rabbit Fc-tagged recombinant human PD1 (rhPD1-rabbit Fc) protein binding. Cells were seeded at 100,000 cells/well in 100 μL of FACS buffer in 96-well polypropylene plates. The cells were centrifuged and resuspended with test antibodies (2× concentration) diluted in FACS buffer, immediately followed by equal volume of rhPD1-rabbit Fc (added at 2× concentration; 0.2 ng/mL and 0.1 ng/mL final for PD-L1 and PD-L2, respectively). Cells were incubated on ice for 1 hour and washed twice. rhPD1-rabbit Fc binding on CHO-human PD-L1 or PD-L2 cells was detected with R-Phycoerythrin AffiniPure F(ab′)₂ Fragment Goat Anti-Rabbit IgG (H+L) (1:200 dilution, Jackson ImmunoResearch) for 30 minutes. The cells were washed twice with FACS buffer, fixed in 4% paraformaldehyde in PBS for 20 mins on ice in the dark, washed twice with FACS buffer, and analyzed using the BD LSR II Flow Cytometer. Data were analyzed using FlowJo (FlowJo, LLC; Ashland, Oreg.) to determine mean fluorescence intensities. Prism 6 software was used to create one site, specific binding with Hill slope curves (Log transform) to determine IC₅₀ values.

[3] = molecular target: T3, rabbit Fc-tagged recombinant human PD1 …; assay: flow cytometry competition: inhibition of rhPD1-rabbit Fc binding to human PD-L1 on CHO cells; PE anti-rabbit IgG detection
Protocol: as §1

[4] = molecular target: T1, hLAG3 (Acro Biosystems), SPR analyte; assay: SPR (Biacore), antibody captured by anti-Fc, hLAG3 as analyte, 25 C
Protocol: (§2) Anti-Fc polyclonal antibodies were immobilized onto a CMS chip (GE Life Sciences) using amine coupling chemistry (from Amine Coupling Kit, GE Life Sciences). The immobilization steps were carried out at a flow rate of 25 μl/min in 1×HBS-EP+buffer (GE Life Sciences; 10× Stock diluted before use). The sensor surfaces were activated for 7 min with a mixture of NHS (0.05 M) and EDC (0.2 M). The Anti-Fc antibodies were injected over all 4 flow cells at a concentration of 25 ug/ml in 10 mM sodium acetate, pH 4.5, for 7 min. Ethanolamine (1 M, pH 8.5) was injected for 7 min to block any remaining activated groups. An average of 12,000 response units (RU) of capture antibody was immobilized on each flow cell.
(§3) Kinetic binding experiments were performed at 25° C. using 1×HBS-EP+buffer. Test and control antibodies were injected over the anti-Fc surface at concentrations of 5-10 μg/mL for 12 seconds at a flow rate of 10 μl/min on flow cells 2, 3 and 4, followed by a buffer wash for 30 seconds at the same flow rate. Kinetic characterization of antibody samples was carried out with a dilution series of antigen and 1 injection of 0 nM antigen. After capturing ligand (antibody) on the anti-Fc surface, the analyte (hPD1 or hLAG3, Acro Biosystems, Newark, Del.) was bound at 100, 25, 6.25 and 0 nM for 180 seconds, followed by a 450 second dissociation phase at a flow rate of 50 μl/min. Between each ligand capture and analyte binding cycle, regeneration was carried out using 2 injections of 10 mM Glycine pH 2.0 for 30 seconds at 30 μL/min, followed by a 30 second buffer wash step.
(§4) The data was fit with the Biacore T200 Evaluation software, using a 1:1 Langmuir binding model. KD (affinity, nM) was determined as a ratio of the kinetic rate constants calculated from the fits of the association and dissociation phases.

[5] = molecular target: T4, hPD1 (Acro Biosystems), SPR analyte (human, UniProt Q15116 25-167); assay: SPR (Biacore), antibody captured by anti-Fc, hPD1 as analyte, 25 C
T4 construct: also called human PD1 kinetics
T4 sequence (Q15116 25-167 limits assumed): as above
Protocol: as §2, §3, §4

| Bmax [1] | Kd [1] | IC50 [2] | IC50 [3] | Kd [4] | koff [4] | kon [4] | Kd [5] | koff [5] | kon [5] | Binder |
| --- | --- | --- | --- | --- | --- | --- | --- | --- | --- | --- |
| 1970 MFI | 4.3 nM | 3.3 nM | 4.7 nM | 0.0944 nM | 0.000138 s⁻¹ | 1.46e+06 M⁻¹ s⁻¹ | 4.37 nM | 0.00487 s⁻¹ | 1.12e+06 M⁻¹ s⁻¹ | PD-1/LAG3 Bi-specific Construct B: aPD1 1353-G10 scFvFc zwB R28T/P30D/H31S V262E; aLAG3 1449-G09.2 Fab zwA V262E (bispecific antibody, human IgG1, kappa, The N-terminal Met is not included) scFv: EVQLVQSGAEVKKPGASVKVSCKASGYTFDSYGISWVRQAPGQGLEWMGWISAYNGNTNYAQKLQGRVTMTTDTSTNTAYMELRSLRSDDTAVYYCARDVDYGTGSGYWGQGTLVTVSSGGGGSGGGGSGGGGSSYELTQPPSVSVSPGQTARITCSGDALPKQYAYWYQQKPGQAPVMVIYKDTERPSGIPERFSGSSSGTKVTLTISGVQAEDEADYYCQSADNSITYRVFGGGTKVTVLAAGSDQEPKSSDKTHTCPPCPAPELLGGPSVFLFPPKPKDTLMISRTPEVTCEVVDVSHEDPEVKFNWYVDGVEVHNAKTKPREEQYNSTYRVVSVLTVLHQDWLNGKEYKCKVSNKALPAPIEKTISKAKGQPREPQVYVLPPSREEMTKNQVSLLCLVKGFYPSDIAVEWESNGQPENNYLTWPPVLDSDGSFFLYSKLTVDKSRWQQGNVFSCSVMHEALHNHYTQKSLSLSPGK heavy: not shown light: not shown |
| 3660 MFI | 1.5 nM | 1.5 nM | 2.4 nM | 0.519 nM | 0.000694 s⁻¹ | 1.34e+06 M⁻¹ s⁻¹ | 1.29 nM | 0.000649 s⁻¹ | 503000 M⁻¹ s⁻¹ | PD-1/LAG3 Bi-specific Construct C: aPD1 1353-G10 Vk1-39LC scFvFc zwB V262E; aLAG3 1449-G09.2 Fab zwA V262E (bispecific antibody, human IgG1, kappa, The N-terminal Met is not included) scFv: EVQLVQSGAEVKKPGASVKVSCKASGYRFPHYGISWVRQAPGQGLEWMGWISAYNGNTNYAQKLQGRVTMTTDTSTNTAYMELRSLRSDDTAVYYCARDVDYGTGSGYWGQGTLVTVSSGGGGSGGGGSGGGGSDIQLTQSPSSLSASVGDRVTITCSGDALPKQYAYWYQQKPGKAPKLLIYKDTERPSGVPSRFSGSSSGTKVTLTISSLQPEDFATYYCQSADNSITYRVFGGGTKVEIKAAGSDQEPKSSDKTHTCPPCPAPELLGGPSVFLFPPKPKDTLMISRTPEVTCEVVDVSHEDPEVKFNWYVDGVEVHNAKTKPREEQYNSTYRVVSVLTVLHQDWLNGKEYKCKVSNKALPAPIEKTISKAKGQPREPQVYVLPPSREEMTKNQVSLLCLVKGFYPSDIAVEWESNGQPENNYLTWPPVLDSDGSFFLYSKLTVDKSRWQQGNVFSCSVMHEALHNHYTQKSLSLSPGK heavy: not shown light: not shown |
